# Assay results published in patent publication US20150351390A1, “COMPOSITIONS AND METHODS FOR AUXIN-ANALOG CONJUGATION” (PIONEER HI-BRED INTERNATIONAL, INC., priority 2012, published 2015).
# B1: Br031718: GH3 protein, Bra031718 (protein, listed as Brassica rapa)
# chain: MSLGCDLSVLEELTSNAKQIQDDVLTKILKANTNTEYLSRFLEGSSEKELFKKNVPVVSYEDVKPYIDRVANGEPSDILSGKPITAFFRSTGTSSGEKKIFPANDNFEDILLGLALSSLVMSKHVDGYKQGKVMIFKFIQPISTTPCGLPLAPSITIIMKSKCYRSPGKRSTTPDEIIMCTDPKQSMYCQLLCGLVQRDEVVSVGALFASVLVQIIRFLEKYWKELCSNIRSGHVSDWITDHCCRDSVSTILGEPNPELADLIENECGQESWQGIVSRLWPKTKCVETIVTGIMAQYIPALEFYSDKLPIVSSIYGSSETFFGLNVNPLCKPQHVSYTFLPNMSYFEFIHVDADGEATGEIVDLVDVKSGGYYEPLVTNYSGLYRCRVGDVLHVTGFYNNAPQFRFVRRKNTVLSIFVESTTEEDVLKALDRATVVLESSDLMLTGFTCFGDVSTVPGHYVFYLELKAKVNNDTNVLLLDEKVLVEYCCVMEESLSSFYRSLRRKDGPIGPLEVRVVQQGTFDSLMEFFVSRGASITQYKTPICINSVEASRVLEDKVLARFFSDKSPTI
# B2: Br029173: GH3 protein, Bra029173 (protein, listed as Brassica rapa)
# chain: MSMWADLSDKLDEKVLEDLTSNVKQMQDDVLKEILTLNANTEYLRPFLHGSSDKELFKKNVPVTTYDDVKLFIDRVANGEPFDVISGKPVTGFSLSSGTSGGKRKMFPCNKKYLENLNFIYCYRSLVISKHFDGLEHGKGMVFNFCVPEQTTPSGLPVSAATTLFFKSDYFKNRPSYWHWSFTSPDEVILCLDNKQSLYCHLLCGIVLRDEVVKVGTAFVSTLLRVITFLEKHWKEICTNIRYGHLSEWITDISCRDSVSKILGEPNPELADLIENECNQKSWEGIIQRLWPKTKFIESIATGQMAQHIPTLEFYSNKLPLISSSYVSSETMFGININPLCKPQDVSYTFMPHFSYFEFLLVDAGDEVEIVDLVDVKLGCHYETLVTNHSGLHRYKMGDIVQVTGFYNNAPQFRFARRGNLVLSVHMEITTDQALLNAVTHAKMVLESSNLMLMDFTGYADISTTPGHYVLYWELKGKYSNDIAKIDDKVLVECCYVVEESLDNFYKEYRKNGSIGALEIRVVQQGTFDSLMEFFISQGASSTQYKTPICIKSTEAIAILERKVRARFFTDKSLSLKFSS
# B3: Br040812: GH3 protein, Bra040812 (protein, listed as Brassica rapa)
# chain: MSSIVELSSLEELTLNAEQIQDDLLEKILRLNSNTEYLRRFLHGSNDKELFKKNVPLANYEDVKPYIERVANGEPSDLISGGPVTRFFRSSGTSGGKQKIFPVNDEAIEQLGYVLALRSLVMSKHFSDNGVEQGKTMEFHYTKPESTTPSGLPVAAAFTSFFKSDYFKNRPSKSQYTSPDQVILCPDNKQSLYCHLLCGLSQRDEVVRFGATFAHALVRAIDFLESNWKELCGNIRLGHVSEWITDLGCRSSVSAIIGGPNPELADLIEQECSHKSWEGIVTRLWPKAKRIECVLTGQMAQYIPILDFYCNKLPLVSTVYGSSESIFGFNVDPLCKPQDVSYTFVPNTSYFEFLPVDHEGDMTSIVDLVNVKLGCYYEPVVTTCFGLNRYLIGDILEVTGFYNNTPQFRFVRRKNMVLSVETETTTEDDILKALARATFVLESSNLMLMDFTSSADISTFPGHYVFYWELKGKEVNDVLVLDEKTLMGCCYVLEESFGSTYRLKRRTGLIGALEIRVVEQGTFNSLTDYFISRGSSRAQYKTPLCINSSEASAVLENKVLARFHSEKSPPLDL
# B4: Br008836: GH3 protein, Bra008836 (protein, listed as Brassica rapa)
# chain: MKPISNNDETWDATLKDLTSNVKEIQDNVLEEIITPNLKTEYLQRFNMDRFDKKLFKKNVPVVSYEDIKPDIDRVVNGESSDVISARPITGFLLSSGTSGGAQKMMPWNNKYLDNLTFAYDLRMHVITKHVKGLEEGKGMMFLFTKQETKTPSGLLARVATSSYFKSDYFTNRPSNWYYSYTSPDEVILCSNNTQSLYCHLLCGLLQRDEVVRMGSIFASVMVRAIKFLETYWEELCSNIRSGRLSEWITDLGCRSSVSLVLGGPRPDLADTIETICNQSSWKGIVTRIWPNTKYIETVVTGSMGQYVPTLNYYCSDLPLVSTTYGSSETTFGINVDPLCKPEDVSYAFMPNMSYFEFITMDGEKRDVVDLHDVKIGCTYEPVVTNFAGLYRMRVGDVLLVTGFYNNAPQFRFVRRENVVLSIDSDKTNEEDLFKAVSQAKLVLDSSDLFLEDFTSYADTSTFPGHYVIYVEVKAKGGNNHLELNEEVFSKCCSVMEDSLDNVYKRCRFKDGSVGPLEIRVVDKGTFESLMDFFINQGASTGQYKTPRCIKSGKALELMEDRVVAKFFSS
# B5: Br016359: GH3 protein, Bra016359 (protein, listed as Brassica rapa)
# chain: MSVISVLTEKANDKLKILEDLTSNVKQIQDNVLEEILTLNTNTEYLQRFFHGKFDKEIFKKNVPVGTYEDVKPYIQRVANGEPSNVISTRPITGFLLSSGTSGGAQKIMPWNEKFLDYLTFMYDLRMHVITNYVKGLEKGKAMMFYFTKLESTTASGLPARTASSSYLKSSYFKNRPCNWYYTYTSPDEVILCPDNKQSLYCHLLCGLVQRNEVTRMGSIFASVMVRAIKFLEDSWEELCSNIRSGQLSEWITDPGCRDSVSMVLGGPHPEVANTVEKICNEKCWKGILKRLWPRTKYIETIVTGSMAQYVPTLNYYCNDMLPLVSTIYASSETTFGLNLNPLCKPEDVSYTIMPNVSYFEFIPLDGDENDVVDLADLKLGCSYELVVTNFSGLYRIRVGDILLVTGFYNKAPQLRFIRRDNVVLSIDMDKTNEEDLFNAVNRAKLIINSSGLMLTDFTSHGDISTIPGHYVIYWEVEDKREDKTKHICMELKGDAFSECCLVMEDSFDNVYKRCRFREKTVGPLEIKVVLHGTFDSLMDFFISQGASIGQYKTPRCIGSGKPLELLEKNVVATFFSTGDCSFKN
# Assay: LC-MS assay of GH3 conjugation of IAA with Asp or Glu
# Format: biochemical
# Conditions: LC-MS; IAA with Asp
# Summary of the method: (§1)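 N-His-tagged GH3 homologs expressed in E. coli C41(DE3) and Ni-NTA purified (44 to 164 μg/mL) were incubated 3 hours at 30° C. in 20 mM Tris-HCl pH 8.0, 5 mM MgCl2, 1 mM DTT with 5 mM each of auxin, ATP and Asp or Glu. Conjugates were quantified by LC-MS against standards.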
row,Molecule,Detected auxin conjugates: IAA-Asp
1,B1,No
2,B2,Yes
3,B3,Yes
4,B4,Yes
5,B5,Yes

# Same assay, conditions: LC-MS; IAA with Glu
row,Molecule,Detected auxin conjugates: IAA-Glu
1,B1,No
2,B2,Yes
3,B3,Yes
4,B4,Yes
5,B5,No

# Assay: LC-MS assay of GH3 conjugation of 2,4-D with Asp or Glu
# Format: biochemical
# Conditions: LC-MS; 2,4-D with Asp
# Summary of the method: as §1
row,Molecule,"Detected auxin conjugates: 2,4-D-Asp"
1,B1,No
2,B2,Yes
3,B3,Yes
4,B4,Yes
5,B5,Yes

# Same assay, conditions: LC-MS; 2,4-D with Glu
row,Molecule,"Detected auxin conjugates: 2,4-D-Glu"
1,B1,No
2,B2,Yes
3,B3,Yes
4,B4,Yes
5,B5,No

# Assay: LC-MS assay of GH3 conjugation of dicamba with Asp or Glu
# Format: biochemical
# Conditions: LC-MS; dicamba with Asp
# Summary of the method: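 GH3 superfamily homologs, found by Blast searches of public databases using AtGH3.17 (Q9FZ87), were synthesized with E. coli-optimized codons and an N-terminal his-tag, expressed in OverExpress C41(DE3) cells after 0.2 mM IPTG induction at 16° C., and Ni-NTA purified. Conjugation of dicamba with Asp or Glu was measured by LC-MS using conjugate standards.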
row,Molecule,Detected auxin conjugates: Dicamba-Asp
1,B1,No
2,B2,No
3,B3,No
4,B4,No
5,B5,No

# Same assay, conditions: LC-MS; dicamba with Glu
row,Molecule,Detected auxin conjugates: Dicamba-Glu
1,B1,No
2,B2,No
3,B3,No
4,B4,No
5,B5,No
